According to US10772972B2, “Anti-STEAP2 antibody drug conjugates, and compositions and uses thereof” (Regeneron Pharmaceuticals, Inc., priority 2016, dated 2020):
Where “and” joins values, the source holds several entries; their conditions need not be identical. Equal entries are not always repeated.

What was measured:
[1] = test system: Raji cells (STEAP2 negative); experiment: FACS binding to STEAP2-negative Raji cells; settings: human-Fc antibodies
Method: (§1) The ability of anti-STEAP2 antibodies to selectively bind to human six-transmembrane epithelial antigen of prostate 2 (STEAP2) endogenously expressing cell lines was determined via FACS analysis.
(§2) Briefly, 1×10^5 cells were incubated with 10 μg/ml of anti STEAP2 antibodies, or isotype control antibodies for 30 min on ice in antibody dilution buffer. Following one wash with antibody dilution buffer, cells were incubated with 10 μg/ml of PE conjugated anti-human or anti mouse Fc secondary antibodies for 30 min on ice. Following one additional wash, samples were incubated with Cytofix (1% formaldehyde) for 20 minutes. After one final wash, samples were filtered through a Pall 96 well filtration block, run on a Hypercyt® cytometer and analyzed in ForeCyt™ (IntelliCyt, Albuquerque, N. Mex.). Mean fluorescence intensities (MFI) were expressed as fold change above unstained levels (background). The average fold above background at antibody concentrations of 100-300 nM were determined. For cell binding EC50 determinations, mAb concentrations ranged from 300 nM to […] and EC50 values were determined from a four-parameter logistic equation over a 12-point response curve (GraphPad Prism).

[2] = test system: cynomolgus T cells; experiment: FACS binding titration of STEAP2xCD3 bispecifics on cynomolgus T cells; settings: 66.6 nM to 0.001 nM, 30 minutes at 4° C.
Method: FACS Binding Titration on Jurkat Cells, PC3_STEAP2/1 Cells and cynomolgus T Cells: Flow cytometric analysis was utilized to determine binding of STEAP2×CD3 bispecific antibodies to Jurkat, PC3_STEAP2/1 chimeric and cynomolgus T cells, followed by detection with a phycoerythrin (PE)-labeled anti-human IgG antibody. Briefly, 2×10^5 cells/well were incubated for 30 minutes at 4° C. with a serial dilution of STEAP2×CD3 bispecific antibodies or control antibody (a human IgG1 antibody that binds a feline antigen with no cross-reactivity to STEAP2 or human or cynomolgus CD3) ranging from 66.6 nM to 0.001 nM. After incubation, the cells were washed twice with cold PBS containing 1% filtered FBS and a PE-conjugated anti-human secondary antibody was added to the cells and incubated for an additional 30 minutes. Wells containing no antibody or secondary antibody only were used as a control. After incubation, cells were washed, re-suspended in 200 μL cold PBS containing 1% filtered FBS and analyzed by flow cytometry on a BD FACS Canto II.

[3] = test system: monkey PBMCs; experiment: T cell proliferation assay, cynomolgus PBMC; assay type: cell-based; settings: for Cynomolgus PBMC proliferation activity (in words): across donors tested
Method: Thawed human or freshly isolated monkey PBMCs (50,000 cells/well) were incubated with 3-fold (human, concentration range: 5E-10M to 2.82E-15M; cynomolgus, concentration range: 1E-09M to 4.57E-13M) serial dilutions of STEAP2×CD3 bispecifics or isotype control in complete medium (RPMI supplemented with 10% FBS, 100 U/mL penicillin, 100 μg/mL streptomycin, 292 μg/mL L-glutamine) and a fixed concentration (human: 200 ng/mL, cyno: 500 ng/mL) of a commercial anti-CD28 antibody (Biolegend, Catalog #302914) in white flat bottom 96-well plates for 72 hours at 37° C. Isolated monkey PBMCs were from two donors (identified as mk8781M or mk9381M). Following incubation, CellTiter Glo® (Promega, Cat #7573) was added and luminescence, as readout for cell viability, was measured using a VICTOR X5 multi-label plate reader. Cell titer was calculated by dividing the luminescence of stimulated cells by the baseline luminescence of unstimulated cells.

[4] = test system: human prostate cancer C4-2 cells (xenograft); experiment: C4-2/human PBMC co-implant xenograft in NSG mice, immediate dosing; assay type: in vivo, mouse; settings: C4-2/NSG
Excerpt: To assess the in vivo efficacy of the anti-STEAP2/anti-CD3 bispecifics in human tumor xenograft studies, NOD scid gamma (NSG) mice (Jackson Laboratories, Bar Harbor, Me.) were co-implanted with human peripheral blood mononuclear cells (PBMCs; ReachBio LLC., Seattle, Wash.) along with human prostate cancer C4-2 cells (MD Anderson Cancer Center, Houston Tex.) which endogenously express STEAP2.
Briefly, 5.0×10^6 C4-2 cells were co-implanted subcutaneously (s.c.) with 1.25×10^6 human PBMCs in a 50:50 mix of matrigel matrix (BD Biosciences, San Jose, Calif.) into the right flank of male NSG mice. Mice were treated intraperitoneally (i.p.) on the day of implantation (immediate treatment model) with anti-STEAP2/anti-CD3 bispecifics BSSTEAP2/CD3-001, BSSTEAP2/CD3-002 or BSSTEAP2/CD3-003, or an isotype control, at a dose of 0.1 or 0.01 mg/kg (N=5 mice/group).
Tumor size was measured 2×/week using calipers and tumor volume calculated as Volume=(length×width^2)/2. Data is shown as tumor size (mm^3) at study endpoint, 46 d post-tumor implantation (Table 7).

[5] = test system: FADU cells (STEAP2 negative); experiment: FACS binding to STEAP2-negative FADU cells; settings: human-Fc antibodies
Method: as §1, §2

[6] = test system: C4-2 cells (high-STEAP2 expressing); experiment: Internalization and total binding on C4-2 cells (imaging, qualitative score); assay type: cell-based, human; set-up: key: − (no internalization or binding); +(weak internalization or binding); ++(moderate internalization or binding); +++(robust internalization or binding); settings: 10 μg/ml antibody
Method: Briefly, 20,000 C4-2 cells were seeded in PDL coated 96 well plates. The next day, cells were incubated with anti-human STEAP2 antibodies (10 μg/ml) for 30 min on ice followed by two PBS washes. Cells were then incubated with alexa488-conjugated anti-hFc Fab secondary antibody for 30 minutes on ice, followed by two additional PBS washes. Antibodies were allowed to internalize for 1 h at 37° C. in internalization buffer (PBS+2% FBS) or were maintained at 4° C. Cells were fixed in 4% formaldehyde, nuclei were stained with DRAQ5 (Cell signaling), and images were acquired on the ImageXpress micro XL (Molecular Devices).
A qualitative visual assessment of the total binding intensity and the intensity of antibodies that had internalized into vesicles was performed and scored according to the following criteria: − (no internalization or binding), +(weak internalization or binding), ++(moderate internalization or binding) and +++(robust internalization or binding).

B1: H1H7810N: human-Fc anti-STEAP2 antibody; variable regions presumably as H2M7810N (antibody, V domains shown)
VH: QVQLVESGGGVVQPGRSLRLSCAVSGFTSSTYGMNWVRQAPGKGLEWVAVISYDGSNKYYADSVKGRFTISRDNSKNTLYLQMNSLRPEDTAVYYCARGRYFDLWGRGTLVTVSS
VL: DIQMTQSPSTLSASVGDRVTITCRASQIISSWLAWYQQKPGKAPKLLIYKASSLASGVPSRFSGSGSGTEFTLTISSLQPDDFATYYCQQYKSYSYTFGQGTKLEIK
[1]
  Raji Avg F.A.B (Fold Above Background): 2 fold

B2: BSSTEAP2/CD3-001: STEAP2×CD3 bispecific: anti-STEAP2 HCVR H2M11162N (SEQ 250), anti-CD3 HCVR CD3-VH-G (SEQ 1730), common LCVR SEQ 258 (antibody, V domains shown)
VH 1: QVQLQQSGPGLVKPSQTLSLTCAISGDSVSSNRAAWNWIRQSPSRGLQWLGRTYYRSKWYNDYAVSLRSRITINPVTSKNQVALHMNSVTPEDTAVYYCARAGIVVVPGPETFYYYDHGLDVWGQGTTVTVSS
VH 2: EVQLVESGGGLVQPGRSLRLSCAASGFTFDDYSMHWVRQAPGKGLEWVSGISWNSGSKGYADSVKGRFTISRDNAKNSLYLQMNSLRAEDTALYYCAKYGSGYGKFYHYGLDVWGQGTTVTVSS
VL: DIQMTQSPSSLSASVGDRVTITCRASQSIRSYLNWYQQKPGKAPELLIHAASSLQSGVPSRFSGSGSGTDFTLTISSLQPEDFASYYCQQSYSAPPITFGQGTRLEIK
[2]
  EC50: 7.27 nM
[3]
  Cynomolgus PBMC proliferation activity (in words): induced robust cynomolgus PBMC proliferation in all donors tested
[3]; donor mk9381M, anti-CD28 500 ng/mL, 72 hours, read-out: Cyno PBMC Proliferation [M] (donor)
  EC50: 4.6e-12 M and 4.59e-12 M
[4]; 0.01 mg/kg i.p. on day of implantation
  Tumor Size (mm^3) 46 d post-tumor implantation (mean ± SD): 23.0 ± 220 mm^3
[4]; 0.1 mg/kg i.p. on day of implantation
  Tumor Size (mm^3) 46 d post-tumor implantation (mean ± SD): 18.0 ± 14.0 mm^3
[4]; 0.1 or 0.01 mg/kg
  Tumor growth compared to isotype control at study endpoint (in words): significantly suppressed tumor growth

B3: BSSTEAP2/CD3-005: STEAP2×CD3 bispecific: anti-STEAP2 H1H11162 (SEQ 250), anti-CD3 H1H7208P (SEQ 1490), common LCVR SEQ 258 (antibody, V domains shown)
VH 1: QVQLQQSGPGLVKPSQTLSLTCAISGDSVSSNRAAWNWIRQSPSRGLQWLGRTYYRSKWYNDYAVSLRSRITINPVTSKNQVALHMNSVTPEDTAVYYCARAGIVVVPGPETFYYYDHGLDVWGQGTTVTVSS
VH 2: QVQLVESGGGLVHPGRSLRLSCAASGFKFDDYTMHWVRQAPGKGLEWVSDISWNSGSKGYADSVKGRFTISRDNAKDSLYLQMDSLRAADTAFYYCAKDKSGYGHFYYYAMDVWGQGTTVTVSS
VL: DIQMTQSPSSLSASVGDRVTITCRASQSIRSYLNWYQQKPGKAPELLIHAASSLQSGVPSRFSGSGSGTDFTLTISSLQPEDFASYYCQQSYSAPPITFGQGTRLEIK
[2]
  Cynomolgus T cells EC50 [M]: No Binding
[3]
  Cynomolgus PBMC proliferation activity (in words): no activity

B4: H1H11164N: human-Fc anti-STEAP2 antibody, HCVR/LCVR SEQ ID NOs 282/290 (antibody, V domains shown)
VH: QVQLQQSGPGLVKPSQTLSLTCVISGDSVSTNSAAWNWIRQSPSRGLEWLGRTYYRSKWYNDYAVSVRSRITINPVTSKNQVALHLNSVTPEDTAVYYCARAGIVVVPGPETYYYYYHGLDVWGQGTTVTVSS
VL: DIQMTQSPSSLSASVGDRVTITCRASQNIRSYLNWYQQKPGKAPKLLIHVASSLQSGVPSRFSGSGSGTDFTLTISSLQPEDFATYYCQQSYSTPPITFGHGTRLEIK
modifications: human Fc
[5]
  FADU Avg F.A.B (Fold Above Background): 3 fold
[6]
  Internalization (37° C., 1 h) Qualitative Score: +++
  Total Binding (4° C.) Qualitative Score: +++

B5: BSSTEAP2/CD3-007: STEAP2×CD3 bispecific: anti-STEAP2 H1H11162 (SEQ 250), anti-CD3 H1H7195P (SEQ 1450), common LCVR SEQ 258 (antibody, V domains shown)
VH 1: QVQLQQSGPGLVKPSQTLSLTCAISGDSVSSNRAAWNWIRQSPSRGLQWLGRTYYRSKWYNDYAVSLRSRITINPVTSKNQVALHMNSVTPEDTAVYYCARAGIVVVPGPETFYYYDHGLDVWGQGTTVTVSS
VH 2: EVQLVESGGGLVQPGRSLRLSCAASGFTFADYTMHWVRQAPGKGLEWVSDISWNSGSIAYADSVKGRFTISRDNAKNSLYLQMNSLRTEDTAFYYCAKDSRGYGHYKYLGLDVWGQGTTVTVSS
VL: DIQMTQSPSSLSASVGDRVTITCRASQSIRSYLNWYQQKPGKAPELLIHAASSLQSGVPSRFSGSGSGTDFTLTISSLQPEDFASYYCQQSYSAPPITFGQGTRLEIK
[2]
  EC50: 17.3 nM
[3]
  Cynomolgus PBMC proliferation activity (in words): donor dependent

B6: BSSTEAP2/CD3-009: STEAP2×CD3 bispecific: anti-STEAP2 H1H11164 (SEQ 282), anti-CD3 H1H7208P (SEQ 1490), common LCVR SEQ 290 (antibody, V domains shown)
VH 1: QVQLQQSGPGLVKPSQTLSLTCVISGDSVSTNSAAWNWIRQSPSRGLEWLGRTYYRSKWYNDYAVSVRSRITINPVTSKNQVALHLNSVTPEDTAVYYCARAGIVVVPGPETYYYYYHGLDVWGQGTTVTVSS
VH 2: QVQLVESGGGLVHPGRSLRLSCAASGFKFDDYTMHWVRQAPGKGLEWVSDISWNSGSKGYADSVKGRFTISRDNAKDSLYLQMDSLRAADTAFYYCAKDKSGYGHFYYYAMDVWGQGTTVTVSS
VL: DIQMTQSPSSLSASVGDRVTITCRASQNIRSYLNWYQQKPGKAPKLLIHVASSLQSGVPSRFSGSGSGTDFTLTISSLQPEDFATYYCQQSYSTPPITFGHGTRLEIK
[2]
  Cynomolgus T cells EC50 [M]: No Binding
[3]
  Cynomolgus PBMC proliferation activity (in words): no activity
